US20200140562A1

Columns and labels:
[1] = target: human OX40 on cells (CHO-hOX40, 293HEK-hOX40, Jurkat-hOX40, activated primary CD4+ T cells) (human) (UniProt P43489); assay: flow cytometry, activated CD4+ T cells, donor 2, 100 nM
[2] = target: cyno OX40_Fc (Acro Biosystems) (cyno); assay: BLI, IgG1 on tip, cyno OX40-Fc 100 nM, avid
[3] = target: human OX40 on cells (CHO-hOX40, 293HEK-hOX40, Jurkat-hOX40, activated primary CD4+ T cells) (human) (UniProt P43489); assay: flow cytometry, 293HEK-hOX40, 200 nM
[4] = target: human OX40 on cells (CHO-hOX40, 293HEK-hOX40, Jurkat-hOX40, activated primary CD4+ T cells) (human) (UniProt P43489); assay: flow cytometry, 293HEK-hOX40, 40 nM
[5] = target: human OX40 on cells (CHO-hOX40, 293HEK-hOX40, Jurkat-hOX40, activated primary CD4+ T cells) (human) (UniProt P43489); assay: flow cytometry, 293HEK-hOX40, 1.6 nM
[6] = target: human OX40 on cells (CHO-hOX40, 293HEK-hOX40, Jurkat-hOX40, activated primary CD4+ T cells) (human) (UniProt P43489); assay: flow cytometry, CHO-hOX40, 100 nM blocker, competitor OX40L-hFc-fluorescein
[7] = target: human OX40 on cells (CHO-hOX40, 293HEK-hOX40, Jurkat-hOX40, activated primary CD4+ T cells) (human) (UniProt P43489); assay: flow cytometry, CHO-hOX40, 100 nM
[8] = target: human OX40_Fc (R&D Systems) (human) (UniProt P43489); assay: BLI, IgG1 on tip, hOX40-Fc 50 nM, avid
[9] = target: human OX40 on cells (CHO-hOX40, 293HEK-hOX40, Jurkat-hOX40, activated primary CD4+ T cells) (human) (UniProt P43489); assay: flow cytometry, 293HEK-hOX40, 8 nM
[10] = target: human OX40 on cells (CHO-hOX40, 293HEK-hOX40, Jurkat-hOX40, activated primary CD4+ T cells) (human) (UniProt P43489); assay: cell-based or functional assay

Chain of human OX40 on cells (CHO-hOX40, 293HEK-hOX40, Jurkat-hOX40, activated primary CD4+ T cells) (human) (P43489 29-277): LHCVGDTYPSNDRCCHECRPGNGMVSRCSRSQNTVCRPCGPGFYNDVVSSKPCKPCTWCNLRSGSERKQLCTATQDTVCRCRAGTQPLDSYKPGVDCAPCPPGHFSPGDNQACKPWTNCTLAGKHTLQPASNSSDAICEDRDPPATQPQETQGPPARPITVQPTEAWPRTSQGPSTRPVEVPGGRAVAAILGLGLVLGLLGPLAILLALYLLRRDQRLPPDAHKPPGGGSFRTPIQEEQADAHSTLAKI
Chain of human OX40_Fc (R&D Systems) (human) (P43489 29-216): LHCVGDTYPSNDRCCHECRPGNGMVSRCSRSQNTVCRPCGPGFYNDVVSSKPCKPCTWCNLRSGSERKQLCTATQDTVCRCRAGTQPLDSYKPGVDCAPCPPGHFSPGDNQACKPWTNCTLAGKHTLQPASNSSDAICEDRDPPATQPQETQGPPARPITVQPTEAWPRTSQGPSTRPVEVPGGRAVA

MFI [1] [MFI]	Kd [2] [nM]	MFI [3] [MFI]	MFI [4] [MFI]	MFI [5] [MFI]	MFI of OX40L signal on CHO-OX40 cells [6] [MFI]	CHO-OX40 binding intensity (MFI) [7] [MFI]	Kd [8] [nM]	MFI [9] [MFI]	blocking of OX40L-based activation (recombinant OX40L 60 ug/ml), NFkB-luciferase in Jurkat-hOX40 [10] [nM]	Substance
242000	5.95	2.41e+06	2.76e+06	613000	36000	169000	0.613	2.06e+06	–	11D4, IgG1 OX40 antibody
–	–	–	–	–	–	–	–	–	> 0.08	pogalizumab, human IgG1 OX40 antibody
